Test results taken from publication PMC6884552, “Glycogen branching enzyme controls cellular iron homeostasis via Iron Regulatory Protein 1 and mitoNEET” (Nature Communications, 2019).

Target: T1, Flag-tagged Drosophila Iron Regulatory Protein 1A (IRP1A), wild type (Drosophila, UniProt Q9VCV4 1-902)
T1 construct: Drosophila IRP1A, cDNA LD36161; also called wild type IRP1A; 3x Flag-tagged IRP1A; source: S2 cells, transfected, in lysate
T1 sequence (looked up): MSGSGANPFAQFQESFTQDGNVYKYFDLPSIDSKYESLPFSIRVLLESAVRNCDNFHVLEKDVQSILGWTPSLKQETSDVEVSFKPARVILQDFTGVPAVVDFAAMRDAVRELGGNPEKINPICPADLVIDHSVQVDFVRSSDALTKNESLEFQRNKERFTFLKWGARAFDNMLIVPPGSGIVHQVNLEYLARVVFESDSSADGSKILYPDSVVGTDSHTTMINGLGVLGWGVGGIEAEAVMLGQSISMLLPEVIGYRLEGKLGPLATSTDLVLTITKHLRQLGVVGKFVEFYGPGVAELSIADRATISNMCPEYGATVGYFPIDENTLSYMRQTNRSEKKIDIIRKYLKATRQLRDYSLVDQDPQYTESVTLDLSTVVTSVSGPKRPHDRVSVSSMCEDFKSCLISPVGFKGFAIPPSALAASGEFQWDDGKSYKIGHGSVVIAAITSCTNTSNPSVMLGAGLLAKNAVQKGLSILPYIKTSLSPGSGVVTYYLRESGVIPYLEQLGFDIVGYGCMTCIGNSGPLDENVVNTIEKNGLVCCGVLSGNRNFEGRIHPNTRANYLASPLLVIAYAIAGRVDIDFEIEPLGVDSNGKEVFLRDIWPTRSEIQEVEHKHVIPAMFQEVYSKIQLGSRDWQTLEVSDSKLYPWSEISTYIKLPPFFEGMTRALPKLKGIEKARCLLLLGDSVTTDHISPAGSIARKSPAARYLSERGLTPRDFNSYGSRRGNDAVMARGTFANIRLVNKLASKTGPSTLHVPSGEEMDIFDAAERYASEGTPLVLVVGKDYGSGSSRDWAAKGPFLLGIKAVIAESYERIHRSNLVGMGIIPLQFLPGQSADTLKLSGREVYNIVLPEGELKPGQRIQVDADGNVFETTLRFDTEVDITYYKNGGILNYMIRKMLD
Test: co-IP; S2 cells, triple co-transfection of 3xFlag-IRP1A, 6xMyc-AGBE and 3xHA-Cisd2 from one plasmid; Flag-IRP1A as bait; co-precipitated Cisd2 quantified against the sample without AGBE; three biological replicates
Conditions: partners not purified

B1: HA-tagged Drosophila Cisd2 (natural protein, UniProt Q9VAM6 1-133, looked up)
chain: MEPISHLVKSSLPNYLSSLPVPDSIGGWFKLSFKDWLALIPPTVVVAGLGYTAYLAYCPAARASCAAKNSGRCNNHIRKNEPKVVDMIDVEDIAEKAAFCRCWKTKNWPYCDGSHGEHNKQTGDNVGPIVIKK
notes: Drosophila Cisd2, cDNA RE49709; also called mitoNEET; Cisd2/mitoNEET; source: S2 cells, transfected, in lysate
fold change of co-immunoprecipitated Cisd2 with AGBE co-transfected against without AGBE: ~3 fold
